According to patent US20230301998A1 (SANFORD BURNHAM PREBYS MEDICAL DISCOVERY INSTITUTE, published 2023):

Tests used:
[1] = biological target: T1, Interferon-activable protein 204 (Mus musculus) (IFI204) (Mus musculus, UniProt P0DOV2 1-619); experiment: Flag IP and immunoblot of transfected HEK293T lysates
T1 construct: also called IF204
T1 sequence: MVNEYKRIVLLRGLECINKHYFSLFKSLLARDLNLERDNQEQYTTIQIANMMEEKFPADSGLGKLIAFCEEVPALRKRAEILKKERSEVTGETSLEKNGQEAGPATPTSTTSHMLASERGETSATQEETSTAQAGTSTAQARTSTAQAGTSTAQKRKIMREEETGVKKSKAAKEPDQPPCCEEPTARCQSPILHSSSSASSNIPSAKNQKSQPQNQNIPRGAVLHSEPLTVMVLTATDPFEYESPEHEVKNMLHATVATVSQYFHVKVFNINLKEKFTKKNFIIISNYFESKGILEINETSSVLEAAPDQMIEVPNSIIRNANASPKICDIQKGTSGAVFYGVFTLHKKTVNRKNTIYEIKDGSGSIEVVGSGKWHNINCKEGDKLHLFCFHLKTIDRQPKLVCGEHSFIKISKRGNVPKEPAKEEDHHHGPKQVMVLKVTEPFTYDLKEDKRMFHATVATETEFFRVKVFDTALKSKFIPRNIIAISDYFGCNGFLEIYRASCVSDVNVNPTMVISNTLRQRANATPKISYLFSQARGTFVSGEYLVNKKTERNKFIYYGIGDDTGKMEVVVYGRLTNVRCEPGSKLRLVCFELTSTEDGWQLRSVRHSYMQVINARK

P4HB = biological target: T2, P4HB (human, UniProt P07237 18-508); experiment: Flag IP of Flag-SHARPIN from WM115 lysate, on-bead tryptic digestion, LC/MS-MS
T2 construct: endogenous protein co-purified from WM115 lysate
Method in brief: (§1)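 WM115 cells transfected with Flag-SHARPIN or empty plasmid; lysed in 1% Triton X-100 buffer (50 mM Tris-HCl pH7.4, 150 mM NaCl, 1 mM EDTA). Lysates pre-cleared 1 h at 4° C, immunoprecipitated on FLAG-M2 agarose overnight at 4° C, washed, then digested with trypsin on-bead for mass spectrometry.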

SLC25A13 = biological target: T3, SLC25A13 (human, UniProt Q9UJS0 2-675); experiment: as above
T3 construct: endogenous protein co-purified from WM115 lysate
T3 sequence (looked up): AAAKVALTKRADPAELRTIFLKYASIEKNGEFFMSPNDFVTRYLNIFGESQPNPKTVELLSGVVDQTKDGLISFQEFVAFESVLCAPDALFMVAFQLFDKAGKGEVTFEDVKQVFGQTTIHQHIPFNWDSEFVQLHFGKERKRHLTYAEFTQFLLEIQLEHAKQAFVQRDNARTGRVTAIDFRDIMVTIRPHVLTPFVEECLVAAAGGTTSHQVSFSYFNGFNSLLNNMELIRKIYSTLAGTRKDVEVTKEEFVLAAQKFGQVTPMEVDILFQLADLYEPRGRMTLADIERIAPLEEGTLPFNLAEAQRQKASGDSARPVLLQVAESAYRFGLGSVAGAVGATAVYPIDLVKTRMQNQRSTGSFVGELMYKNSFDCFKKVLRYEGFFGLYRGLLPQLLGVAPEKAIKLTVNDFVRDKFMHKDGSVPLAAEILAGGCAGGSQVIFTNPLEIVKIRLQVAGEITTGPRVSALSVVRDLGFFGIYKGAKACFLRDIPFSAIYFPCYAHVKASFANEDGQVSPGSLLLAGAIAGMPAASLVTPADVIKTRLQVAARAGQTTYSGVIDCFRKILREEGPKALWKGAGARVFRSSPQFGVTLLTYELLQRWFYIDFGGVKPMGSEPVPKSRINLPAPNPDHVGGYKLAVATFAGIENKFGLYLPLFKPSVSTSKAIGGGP
Method in brief: as §1

PFKFB2 = biological target: T4, PFKFB2 (human, UniProt O60825 2-505, limits assumed); experiment: as above
T4 construct: endogenous protein co-purified from WM115 lysate
Method in brief: as §1

[2] = biological target: T5, PRMT5 (endogenous, WM115 cells) (human, UniProt O14744 2-637); experiment: as above
T5 construct: endogenous protein co-purified from WM115 lysate; also called Protein arginine methyltransferase 5
Method in brief: as §1

HSPA9 = biological target: T6, HSPA9 (human, UniProt P38646 47-679); experiment: as above
T6 construct: endogenous protein co-purified from WM115 lysate
Method in brief: as §1

ATP5B = biological target: T7, ATP5B (human, UniProt P06576 48-529); experiment: as above
T7 construct: endogenous protein co-purified from WM115 lysate
Method in brief: as §1

HNRNPU = biological target: T8, HNRNPU (human, UniProt Q00839 2-825, limits assumed); experiment: as above
T8 construct: endogenous protein co-purified from WM115 lysate
Method in brief: as §1

PARP1 = biological target: T9, PARP1 (human, UniProt P09874 2-1014); experiment: as above
T9 construct: endogenous protein co-purified from WM115 lysate
Method in brief: as §1

MYH9 = biological target: T10, MYH9 (human, UniProt P35579 2-1960); experiment: as above
T10 construct: endogenous protein co-purified from WM115 lysate
Method in brief: as §1

Measured: binding result

T2 sequence (P07237 18-508 limits assumed): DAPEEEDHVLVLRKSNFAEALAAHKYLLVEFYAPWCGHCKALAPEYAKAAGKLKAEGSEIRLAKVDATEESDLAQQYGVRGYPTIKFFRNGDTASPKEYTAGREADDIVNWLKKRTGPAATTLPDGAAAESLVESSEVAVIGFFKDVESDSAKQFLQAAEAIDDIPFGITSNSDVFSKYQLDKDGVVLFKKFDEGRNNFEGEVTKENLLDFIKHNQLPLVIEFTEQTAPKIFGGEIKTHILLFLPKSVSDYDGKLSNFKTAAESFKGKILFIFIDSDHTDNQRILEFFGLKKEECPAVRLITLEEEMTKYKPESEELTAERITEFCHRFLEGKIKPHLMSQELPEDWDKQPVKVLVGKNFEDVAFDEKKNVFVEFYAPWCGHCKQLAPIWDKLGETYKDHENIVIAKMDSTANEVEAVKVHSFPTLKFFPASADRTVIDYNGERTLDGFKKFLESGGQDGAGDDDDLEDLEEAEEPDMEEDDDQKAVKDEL
T7 sequence (P06576 48-529 limits assumed): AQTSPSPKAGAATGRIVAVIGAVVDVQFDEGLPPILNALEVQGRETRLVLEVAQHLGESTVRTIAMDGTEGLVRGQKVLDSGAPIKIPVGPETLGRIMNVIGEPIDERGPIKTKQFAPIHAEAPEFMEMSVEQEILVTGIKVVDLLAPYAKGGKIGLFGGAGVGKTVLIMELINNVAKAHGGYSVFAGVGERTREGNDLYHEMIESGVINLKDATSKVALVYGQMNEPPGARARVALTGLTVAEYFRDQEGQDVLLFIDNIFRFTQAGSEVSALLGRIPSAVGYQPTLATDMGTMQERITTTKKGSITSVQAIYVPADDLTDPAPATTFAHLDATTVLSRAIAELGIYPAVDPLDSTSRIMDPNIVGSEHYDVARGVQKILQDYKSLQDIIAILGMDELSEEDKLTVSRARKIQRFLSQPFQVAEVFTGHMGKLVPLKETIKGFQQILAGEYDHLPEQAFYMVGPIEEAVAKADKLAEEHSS
T10 sequence (P35579 2-1960 limits assumed): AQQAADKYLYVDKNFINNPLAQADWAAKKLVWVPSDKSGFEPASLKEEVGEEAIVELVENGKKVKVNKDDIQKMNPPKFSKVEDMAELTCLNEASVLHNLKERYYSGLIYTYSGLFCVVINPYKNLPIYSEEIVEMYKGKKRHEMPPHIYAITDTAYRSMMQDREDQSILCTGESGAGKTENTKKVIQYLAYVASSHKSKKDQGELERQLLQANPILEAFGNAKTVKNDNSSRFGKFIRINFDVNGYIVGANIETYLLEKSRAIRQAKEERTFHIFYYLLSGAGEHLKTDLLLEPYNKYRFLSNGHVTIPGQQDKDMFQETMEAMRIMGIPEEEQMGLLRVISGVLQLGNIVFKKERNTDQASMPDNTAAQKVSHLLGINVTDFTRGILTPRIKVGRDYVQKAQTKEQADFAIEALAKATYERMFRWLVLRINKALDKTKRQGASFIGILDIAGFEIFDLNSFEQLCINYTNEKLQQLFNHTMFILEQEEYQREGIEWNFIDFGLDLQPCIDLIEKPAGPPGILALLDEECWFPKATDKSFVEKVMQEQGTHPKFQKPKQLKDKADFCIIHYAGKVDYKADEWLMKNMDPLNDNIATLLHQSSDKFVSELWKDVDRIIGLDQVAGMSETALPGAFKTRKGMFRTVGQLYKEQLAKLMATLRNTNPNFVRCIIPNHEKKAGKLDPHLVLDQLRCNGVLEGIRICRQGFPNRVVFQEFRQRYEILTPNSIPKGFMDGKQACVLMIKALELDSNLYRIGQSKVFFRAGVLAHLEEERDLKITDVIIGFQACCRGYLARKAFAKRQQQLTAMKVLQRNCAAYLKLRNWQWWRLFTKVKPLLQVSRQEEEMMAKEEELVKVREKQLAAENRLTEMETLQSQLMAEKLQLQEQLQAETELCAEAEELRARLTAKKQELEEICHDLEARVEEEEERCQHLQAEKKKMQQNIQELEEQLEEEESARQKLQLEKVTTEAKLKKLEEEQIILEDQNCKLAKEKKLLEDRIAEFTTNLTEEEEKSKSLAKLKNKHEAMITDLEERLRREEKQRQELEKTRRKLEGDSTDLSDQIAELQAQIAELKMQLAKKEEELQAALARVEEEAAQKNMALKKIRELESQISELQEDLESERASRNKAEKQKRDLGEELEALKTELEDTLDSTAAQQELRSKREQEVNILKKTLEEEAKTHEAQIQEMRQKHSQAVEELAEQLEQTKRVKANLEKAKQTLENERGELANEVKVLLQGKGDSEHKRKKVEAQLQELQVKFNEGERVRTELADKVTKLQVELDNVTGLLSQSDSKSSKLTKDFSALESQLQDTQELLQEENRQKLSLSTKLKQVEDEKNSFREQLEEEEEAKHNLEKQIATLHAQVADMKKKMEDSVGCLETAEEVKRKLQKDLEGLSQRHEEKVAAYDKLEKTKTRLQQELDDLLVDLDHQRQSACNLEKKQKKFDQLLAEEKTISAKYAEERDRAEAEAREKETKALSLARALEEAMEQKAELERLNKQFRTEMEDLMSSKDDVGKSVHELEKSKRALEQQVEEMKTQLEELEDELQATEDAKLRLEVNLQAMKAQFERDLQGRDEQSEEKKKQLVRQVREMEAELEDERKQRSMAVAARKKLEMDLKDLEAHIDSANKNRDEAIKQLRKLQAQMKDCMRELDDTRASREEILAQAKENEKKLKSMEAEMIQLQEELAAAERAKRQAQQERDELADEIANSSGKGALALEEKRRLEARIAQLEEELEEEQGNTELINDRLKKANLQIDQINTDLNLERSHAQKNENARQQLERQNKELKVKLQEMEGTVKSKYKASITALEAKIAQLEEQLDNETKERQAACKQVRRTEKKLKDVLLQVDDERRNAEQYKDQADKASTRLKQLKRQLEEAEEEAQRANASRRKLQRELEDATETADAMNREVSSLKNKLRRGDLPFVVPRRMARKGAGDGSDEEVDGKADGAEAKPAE
T5 sequence (O14744 2-637 limits assumed): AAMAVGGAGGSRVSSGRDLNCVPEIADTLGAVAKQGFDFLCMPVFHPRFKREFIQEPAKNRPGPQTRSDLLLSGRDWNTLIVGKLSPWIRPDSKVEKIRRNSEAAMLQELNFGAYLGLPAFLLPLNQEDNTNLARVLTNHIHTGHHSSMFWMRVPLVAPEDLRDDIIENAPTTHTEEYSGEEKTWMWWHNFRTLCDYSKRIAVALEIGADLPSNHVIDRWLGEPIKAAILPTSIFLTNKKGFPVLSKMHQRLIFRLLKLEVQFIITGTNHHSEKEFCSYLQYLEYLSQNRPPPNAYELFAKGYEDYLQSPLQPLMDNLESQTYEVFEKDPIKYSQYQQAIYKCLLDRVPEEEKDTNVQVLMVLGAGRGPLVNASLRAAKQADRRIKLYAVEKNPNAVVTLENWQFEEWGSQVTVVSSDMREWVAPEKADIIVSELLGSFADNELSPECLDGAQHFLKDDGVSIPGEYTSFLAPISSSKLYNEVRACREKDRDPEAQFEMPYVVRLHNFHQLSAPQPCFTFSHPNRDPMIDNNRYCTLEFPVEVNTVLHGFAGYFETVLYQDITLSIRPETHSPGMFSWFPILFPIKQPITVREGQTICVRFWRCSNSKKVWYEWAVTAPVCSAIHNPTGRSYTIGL
T9 sequence (P09874 2-1014 limits assumed): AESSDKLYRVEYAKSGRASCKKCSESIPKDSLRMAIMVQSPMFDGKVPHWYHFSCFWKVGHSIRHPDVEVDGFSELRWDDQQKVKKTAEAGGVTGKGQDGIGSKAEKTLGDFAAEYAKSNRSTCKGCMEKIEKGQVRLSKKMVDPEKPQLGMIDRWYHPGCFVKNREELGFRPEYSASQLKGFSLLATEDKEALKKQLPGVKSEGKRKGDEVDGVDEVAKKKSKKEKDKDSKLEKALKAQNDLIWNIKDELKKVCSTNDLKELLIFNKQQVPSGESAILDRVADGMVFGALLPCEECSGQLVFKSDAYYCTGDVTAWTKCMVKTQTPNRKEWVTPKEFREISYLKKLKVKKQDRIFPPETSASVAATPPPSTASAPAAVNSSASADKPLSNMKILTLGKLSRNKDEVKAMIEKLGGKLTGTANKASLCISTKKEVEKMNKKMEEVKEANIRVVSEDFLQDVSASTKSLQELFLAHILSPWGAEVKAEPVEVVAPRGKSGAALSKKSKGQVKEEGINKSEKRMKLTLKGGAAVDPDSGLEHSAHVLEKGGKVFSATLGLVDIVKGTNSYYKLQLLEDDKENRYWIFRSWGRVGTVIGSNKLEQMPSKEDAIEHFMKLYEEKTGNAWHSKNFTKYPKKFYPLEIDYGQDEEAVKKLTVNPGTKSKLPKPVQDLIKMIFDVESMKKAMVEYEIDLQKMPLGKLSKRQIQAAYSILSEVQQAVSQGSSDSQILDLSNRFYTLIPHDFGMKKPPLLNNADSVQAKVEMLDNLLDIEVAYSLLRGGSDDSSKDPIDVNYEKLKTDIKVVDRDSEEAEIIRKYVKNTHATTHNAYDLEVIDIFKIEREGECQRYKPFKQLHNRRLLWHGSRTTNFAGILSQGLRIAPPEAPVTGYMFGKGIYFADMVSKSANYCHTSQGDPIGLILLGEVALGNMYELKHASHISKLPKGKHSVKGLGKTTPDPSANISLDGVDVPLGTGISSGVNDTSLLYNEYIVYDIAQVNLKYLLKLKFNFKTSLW
T4 sequence (O60825 2-505 limits assumed): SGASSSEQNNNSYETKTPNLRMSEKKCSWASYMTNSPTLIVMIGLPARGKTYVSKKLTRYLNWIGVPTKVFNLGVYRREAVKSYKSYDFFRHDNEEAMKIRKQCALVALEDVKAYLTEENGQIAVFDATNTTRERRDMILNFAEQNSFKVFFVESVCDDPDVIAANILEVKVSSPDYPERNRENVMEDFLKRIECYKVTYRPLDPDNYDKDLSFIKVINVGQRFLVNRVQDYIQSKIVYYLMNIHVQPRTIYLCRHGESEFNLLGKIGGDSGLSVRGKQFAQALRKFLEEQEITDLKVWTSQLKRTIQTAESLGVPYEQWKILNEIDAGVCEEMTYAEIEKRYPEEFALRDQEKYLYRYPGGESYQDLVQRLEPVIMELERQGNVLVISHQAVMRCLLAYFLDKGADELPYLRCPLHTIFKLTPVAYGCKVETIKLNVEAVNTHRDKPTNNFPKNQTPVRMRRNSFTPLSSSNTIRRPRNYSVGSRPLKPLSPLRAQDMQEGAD

B1: Flag-tagged SHARPIN (other, human, UniProt Q9H0F6 1-387, looked up)
chain: MAPPAGGAAAAASDLGSAAVLLAVHAAVRPLGAGPDAEAQLRRLQLSADPERPGRFRLELLGAGPGAVNLEWPLESVSYTIRGPTQHELQPPPGGPGTLSLHFLNPQEAQRWAVLVRGATVEGQNGSKSNSPPALGPEACPVSLPSPPEASTLKGPPPEADLPRSPGNLTEREELAGSLARAIAGGDEKGAAQVAAVLAQHRVALSVQLQEACFPPGPIRLQVTLEDAASAASAASSAHVALQVHPHCTVAALQEQVFSELGFPPAVQRWVIGRCLCVPERSLASYGVRQDGDPAFLYLLSAPREAPATGPSPQHPQKMDGELGRLFPPSLGLPPGPQPAASSLPSPLQPSWSCPSCTFINAPDRPGCEMCSTQRPCTWDPLAAAST
notes: also called Flag-SHARPIN; not shown: FLAG tag
binds: [1] | P4HB | SLC25A13 | PFKFB2 | [2] | HSPA9 | ATP5B | HNRNPU | PARP1 | MYH9
